Literature values in paper PMC3871196.

Target: Calmodulin (UniProt P0DP23)

Kd: 0.32 µM
Substance: Peripherin/rds PerCter C-terminal domain (from UniProt P17810)
